From patent US20200150041

Test system: SDM-25

MMP9 protease, sequence (chain, as listed by the source): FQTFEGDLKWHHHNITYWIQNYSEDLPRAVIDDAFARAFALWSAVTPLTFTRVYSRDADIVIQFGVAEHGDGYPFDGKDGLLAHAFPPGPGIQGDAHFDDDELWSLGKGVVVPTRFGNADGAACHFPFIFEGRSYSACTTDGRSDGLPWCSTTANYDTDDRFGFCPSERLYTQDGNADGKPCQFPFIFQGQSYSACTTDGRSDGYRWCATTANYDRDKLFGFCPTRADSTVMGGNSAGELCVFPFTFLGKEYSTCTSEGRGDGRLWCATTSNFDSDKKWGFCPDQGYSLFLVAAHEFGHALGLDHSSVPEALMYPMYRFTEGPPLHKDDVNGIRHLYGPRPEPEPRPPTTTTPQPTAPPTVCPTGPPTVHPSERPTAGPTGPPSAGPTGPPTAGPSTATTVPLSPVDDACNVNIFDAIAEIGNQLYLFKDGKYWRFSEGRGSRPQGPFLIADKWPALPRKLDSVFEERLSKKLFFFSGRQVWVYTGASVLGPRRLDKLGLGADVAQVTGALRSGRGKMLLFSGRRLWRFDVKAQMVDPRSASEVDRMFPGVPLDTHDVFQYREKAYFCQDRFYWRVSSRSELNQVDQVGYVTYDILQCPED

MMP9 protease was tested, and the “fluorescence emission spectra (630 nm excitation) before and after protease treatment; FRET loss on cleavage” value was “After cleavage, Cy7 no longer quenches Cy5, resulting in an increase of the 670 nm Cy5 emission peak and a reduction of the Cy7 re-emission at 780 nm”.
